Test results reported in the DeepSol protein solubility set.

experiment: soluble on expression in E. coli; label from the status in PepcDB or PDB records

| Sequence | soluble on expression in E. coli |
| --- | --- |
| MSLELNGRALSSTIAPRTQAQRILQTQKISSTDLVVVIGLGNPHLIFEVHKSLEPGQVLLLVDEYPELIFPLWDGILEPVMDVPGRHLFLGHSALNLLWNYLESLPVERVSGIRVFRNTASTALNETYYSDLEIKIRKILSSKMSDLLTKFEFERIWVRNTFVNTANFPDSKNPRTRIESLKGKFLDTPAMLVSAGPSLRSQCEWISKVRDKVFLFSCDTSFKALLKFGIVPDGVITLDAQTHSFFHFMGAESSNVPLFADLVSSPSILRSQKFTKIVHSLSAKYVVDASGEFKREVTAGSKTAEKLLGPIGDIQSGGSVATTAFDLLRNLGCKPIFLVGQDLAYSGREEGHHHHHH | not soluble |
| IIGGHEAKPHSRPYMAYLQIMDEYSGSKKCGGFLIREDFVLTAAHCSGSKIQVTLGAHNIKEQEKMQQIIPVVKIIPHPAYNSKTISNDIMLLKLKSKAKRSSAVKPLNLPRRNVKVKPGDVCYVAGWGKLGPMGKYSDTLQEVELTVQEDQKCESYLKNYFDKANEICAGDPKIKRASFRGDSGGPLVCKKVAAGIVSYGQNDGSTPRAFTKVSTFLSWIKKTMKKS | soluble |
| MNVLDEPDRLHGAHVPIRRGSVRQLQWWEPTPAERVRVLAWTCDCQARFYELCQSGGMVYIRRTVQKDPEPEISETHRWPVQEGWRVWFDLLTGEVR | not soluble |
| MRPVYFLSDFGLEDPYVAVVKAVLAERAPGPAVVDLAHALPPQDLRRAAYALFEALPYLPEGAVVLAVVDPGVGTARRAVAALGRWTYVGPDNGLFTLAWLLDPPRRAFLLEPPRPRPKAALPGWAPGEATFHGRDVFAPAAAHLALGLPPEGLGPEVPVETLARLPLALTEGPEGEVLTFDRFGNAITTLLRAPVGGFVEVGGRRVPVRRTFGEVPEGAPVAYLGSAGLLEVAVNRGSAREALGLKEGMPVRLL | soluble |
| MATKNEELPIIDLAATEGYIVDDTDEDDPVLLAPDGTPIDTWRENYPYEERMTRDEYEKTKRALQIELLKWQNWTKDTGQRHIILFEGRDAAGKGGTIKRFNEHLNPRGARTVALEKPSPRESTSWYFQRYIEHFPCAGEIVFFDRSWYNRSGVERVMGFCTESQHAEFLREVPMLENMILGSGISLTKFWFSVTQKEQRTRFAIRQVDPVRQWKLSPMDLASLDRWDDYTRAKEEQFRYTDTDEAPWITIRSNDKKRARINAMRYILSKFEYSNKDHDLVGEPDPLIVMRGRDRIGD | not soluble |
| CSDLPEIQNGWKTTSHTELVRGARITYQCDPGYDIVGSDTLTCQWDLSWSSDPPFCEKTEE | soluble |
| MGSDKIHHHHHHMTYDYTEPTLSAKGQRMRDILADYIALISHRLPDDVTAKLEELSKIEVDPLQKLVYDTMMENQLLANKLKRPSCQDTGALQFFIKCGAQFPLLGELNQILKDAVYRGTKKAPLRHNAVQTFDEYNTGMNIGDGIPSIFLQVDGNGTDISMYVYMAGGGCTLPGAAKVLMPGEGYEGVVRFVMDRMTSYGINACPPLLVGVGVATSVETAALNSKLALMRRVDSENPNANAAKLEHLLEDGINHIGLGPQGFGGQKSVMGVNVENTARHPSTIGVAVSTGCWSHRRGLINFDADLNYDLPLNKGVELS | not soluble |
| MSLTQMNYAKEGIFTKEMQIVAQKENLSKDFLLENIACGKIIIPANINHKSLDPNGIGFGLRTKVNVNLGVSNDCVDYSEEMKKVELAHKFGIEAIMDLSNYGKTSRFRDELVNVSKAMIGTVPVYDAVGFLEKDLKQINAKDFLDVVYHHAKSGVDFMTIHAGINSRAAHIFKQSKRLTNIVSRGGSVLYAWMMMKDAENPFFEYYDDLLDICLKYDVTLSLGDALRPGSTHDASDGAQISELIELSLLTQRAWDVGIQVMIEGPGHMAINEIEANMQLEKRLCKGAPFYVLGPLVTDIGAGYDHISGAIGGAVAAASGADMLCYVTPAEHLRLPNLEDVREGIVATKIAAHAGDIAKLPKERARDDEMSKARQEIDWEKMFKLAIDGEKAKKMFNERRPDDLNSCSMCGKMCAMNTMNQILKGEDVSLAEGHHHHHH | soluble |
| GMSNEHQLLVGLLKKLKDDALILPTLPEVAMRVQEVVGRPDSSLKQVAEIIGQDAAISARIIKVANSALYSRGVPAENINSAVTRIGLTQIKSIATSVAMEQLFISTNEMVWEVMDEVWRTSIDVTAAACSLLQIYNKKHPGSGLNYDTLTLAGLVHNIGALPVLTEAEAHPEMFTTIEHLRSLVRKMQGPIGRAVLKSWDFAPEVMEVVERWADLPYLGDHVSYLDFIRAAAFYTGELRAGNELEQRLDVFVKRGLPVSPEDLGSDAFLDSYHSIKASYE | soluble |
| MKKMLTFLTTCALSFGVSAQSWEETTEKARGQTVYFHAWGGSQEINSYLRWSADLLKSRYGVTLQHVKVTDIAETTTRLIAEKAAGKNEQGSVDLVWINGENFKSMKNNQLLYGPFVEDLPNWPKVDKSLPVDSDFSEPTEGLEAPWGVGQLVFIHDKQQVNNPPASFAELLSYAQAFPNRISYPQPPEFHGTSFLKAALIELTHYAPELNQAVEPATFEQLTQPLWQYLDELHAVAWRKGKQFPAGSAQMMQLLDDGQLDLAITFNPNAVFSAQATGKLAPTAQSYAMKKGALTNIHFLAIPWNANAKEGALVAINFLLSDEAQSRKGDLSIWGDPSILKPQFLTGSAKNTILFPAIAEPHPSWQSALEAEWQKRYGNSLK | not soluble |
| MMPNVAPNSYYLNIPNANSTSTTTSSIFSDLNKEYESKIKEIEEYYIKTLLNENTDNDDSSSSEGHNINETDILSEYSPRPSPWLPSKPNCYHPLGDFKDLIISDSRPTNTLPINNPFAGNNNISTLATTEKKRKKRSLEVRVNPTYTTSAFSLPLTAENLQKLSQVDSQSTGLPYTLPIQKTTKLEPCRRAPLQLPQLVNKTLYKTELCESFTIKGYCKYGNKCQFAHGLNELKFKKKSNNYRTKPCINWSKLGYCPYGKRCCFKHGDDKDVEIYQNANDGRSKDTALTPLPTSLAPSNNDNITNLSKPRNLHTSVKALQRMTW | not soluble |
| MDAFRLAPCGPLRGRLRVPGDKSVTHRGLMLLALAEGEGRLFYPLKAGDTLSTARVLQALGAEVREEGPHFLVRGRGLRFQEPEDVLDCGNAGTLMRLLLGLLAGQEGLFAVLTGDASLRRRPMGRVVAPLRAMGARVDGREEGERAPLAVRGAPLRGLRYTLPVPSAQVKSALLLAGLFAEGVTKVEEPTPTRDHTERLFRHFGLPLEVEGRKVRTWRTGPFPAKDLVVPGDFSSAAFFLVAALVTPGSEVVVEGVGLNPTRTGLLTVLKAMGADLEWQVLEGEAGEPVGWVRARHSLLKGVAVDPGLIPLMVDEVPVLAAAAAWAEGETYIPGLSELRVKESDRVRAIAENLRALGVEVEEGPDWLRIRGGGVRPGRVRPFHDHRIAMAFAVAGLPVGVEVEEPHWAEISYPGFFQDLLRLCAAS | soluble |
| MPSLQDLYAAFRRIAPYTHRTPLLTSRLLDGLLGKRLLLKAEHLQKTGSFKARGALSKALALENPKGLLAVSSGNHAQGVAYAAQVLGVKALVVMPEDASPYKKACARAYGAEVVDRGVTAKNREEVARALQEETGYALIHPFDDPLVIAGQGTAGLELLAQAGRMGVFPGAVLAPVGGGGLLAGLATAVKALSPTTLVLGVEPEAADDAKRSLEAGRILRLEAPPRTRADGVRTLSLGERTFPILRERVDGILTVSEEALLEAERLLFTRTKQVVEPTGALPLAAVLEHGARLPQTLALLLSGGNRDFSP | soluble |
| NCSKIHLSTKLLAVDFPAHFVKSISCQICEHILADPVETSCKHLFCRICILRCLKVMGSYCPSCRYPCFPTDLESPVKSFLNILNSLMVKCPAQDCNEEVSLEKYNHHVSSHKESK | soluble |
| MSKSVSIPQALSDLKRTSLRRLSSARGVGNKKTVVSTSTPLSGFVILVEREEKVVRLYGTAAERAGLSIGDEIVGVNDMKIEGKSYEEVTTYIQECIRRKIIQLKVRRRALEIPAENEASVFNCTNSNRMITDAYLVSVDKDHIKEVTKRLKK | not soluble |
